B1: OAS1 (parent)
chain: TPAKSLDKFIEDYLLPDTCFRMQI
B2: TMEM192 (parent)
chain: ILGKVILWILHLLLECYIQYHHSK

Variants of: B1
Test: protein stability index of a GFP-peptide fusion (GPS, HEK-293T) (PSI 1-6); higher = more stable
Conditions: c terminus: a fixed tail appended
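Further: lentivirally expressed fusions sorted by FACS into six bins by GFP to DsRed ratio, PSI derived from sequencing read proportions per bin multiplied by bin number.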

Protein stability index of substitutions, site by site:
P2: Q 2.97 | F 3.08 | C 3.55 | S 1.69 | G 3.49 | N 3.68 | T 2.82 | L 2.82 | R 2.81 | D 1.92 | I 2.16 | M 3.28 | H 3.76 | V 1.74 | W 3.86
T1: Y 2.84 | I 2.59 | D 1.82 | P 2.51 | R 4.07 | H 3.45 | L 3.21 | V 1.06 | C 2.39 | W 2.39 | S 2.13 | N 3.42 | G 3.6 | A 2.48 | E 1.7 | M 1.9 | K 2.84 | Q 2.42
A3: P 2.49 | L 2.85 | N 2.47 | D 1.54 | G 3.77 | C 3.23 | H 2.99 | K 2.57 | I 3.83 | Q 2.56 | M 2.11 | F 3.88 | E 2.88

Variants of: B2
Test: as above
Conditions: c terminus: a fixed tail appended

Protein stability index: each site, then its substitutions
H21: F 3.45 | V 3.35 | I 3.57 | E 3 | M 2.86 | W 2.55 | K 3.49 | T 2.54 | R 1.92 | D 4.02 | N 1.95 | L 2.36 | G 3.35 | S 2.67 | Y 4.47 | P 2.65
Y17: T 1.81 | W 3.9
S23: L 3.84 | M 2.49 | Q 2.32 | W 3.3 | A 2.08 | E 2.49 | K 2.82 | V 4.52 | N 4.27 | R 3.3 | F 2.9 | Y 2.72 | I 2.68 | D 2.57 | P 1.54 | G 3.2
Y20: W 2.22 | V 3.38 | C 3.13 | Q 4.39 | G 2.11 | E 3.48 | L 3.1 | F 1.26 | D 2.2 | N 2.5 | S 3.62 | R 1.94 | M 3.73 | K 2.51 | T 4.2 | H 1.97 | A 2.9 | P 3.57
Q19: G 3.15 | M 2.97 | L 4.51 | E 3.03 | N 2.91 | I 2.76 | A 2.58 | T 2.57 | D 3.64 | F 2.49 | K 2.25 | H 2.44 | P 2.26 | Y 3.49 | R 2.9 | W 2.36 | V 3.16 | C 3.13
H22: K 3.66 | F 2.56 | T 2.36 | P 2.33 | Y 3.11 | A 2.94 | I 2.33 | S 3.42 | D 3.4 | L 1.94 | C 1.54 | G 2.63 | V 2.95 | E 2.6 | M 1.96 | W 3.65
I18: N 1.48 | A 4.65 | L 3.64 | P 2.44 | H 2.59 | W 3.7 | V 3.96 | Q 3.46 | S 2.74 | K 3.4 | R 2.36 | T 2.31 | C 2.4 | E 2.99 | Y 2.24 | G 2.71 | F 3.01 | M 2.03 | D 2.61
K24: D 2.86 | C 2.89 | I 2.38 | G 3.14 | F 3.92 | N 3.06 | T 3.66 | P 3 | M 3.05 | R 3.46 | A 2.69 | L 2.65 | E 3.43 | V 2.48 | H 2.07 | W 3.65

— the supplement of paper PMC10567573
